In the assay the target is KCNQ1 cardiac potassium channel (KvLQT1), full-length (UniProt P51787). Briefly: cell-based or functional assay.

Substance “KCNE1-D85N (cardiac potassium channel minK subunit polypeptide with asparagine at amino acid 85)” gave an increase of current after the 10th pulse of a depolarizing pulse train of 1.9 fold, a time constant for activation at +40 mV (first time constant) of 368 ms, a time constant for activation at +40 mV (second time constant) of 2150 ms and a time constant of deactivation (tail currents at -50 mV after activation at +60 mV) of 295 ms. Also, the voltage-dependence of activation, V1/2 is 20.6 mV.

The values above are taken from patent US20030108924A1.
